Data: US20240309389A1, “Chimeric FCeRI a-Chain Gene, Chimeric FCeRI a-Chain Protein, Cells, Analysis Kit and Analysis Method” (TEIKYO HEISEI UNIVERSITY, priority 2021, published 2024)

Biological target: Human-Rat chimeric FcεRI α-chain protein (chimeric FcεRI on the cell membrane of HuRa clones) (human (extracellular domain) and rat (transmembrane and intracellular domains); rat) (UniProt P13386)
Assay: cell-based or functional assay

Chain of Human-Rat chimeric FcεRI α-chain protein (chimeric FcεRI on the cell membrane of HuRa clones) (human (extracellular domain) and rat (transmembrane and intracellular domains); rat) (chain, as listed by the source mutant, form in doubt, chain 1 of 3): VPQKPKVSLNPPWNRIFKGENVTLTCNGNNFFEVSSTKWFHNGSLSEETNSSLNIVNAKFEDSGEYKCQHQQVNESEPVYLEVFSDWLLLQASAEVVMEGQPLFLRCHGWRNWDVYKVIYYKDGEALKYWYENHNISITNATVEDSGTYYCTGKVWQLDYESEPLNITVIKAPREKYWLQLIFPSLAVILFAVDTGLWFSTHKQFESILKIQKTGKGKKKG
Chain of Human-Rat chimeric FcεRI α-chain protein (chimeric FcεRI on the cell membrane of HuRa clones) (human (extracellular domain) and rat (transmembrane and intracellular domains); rat) (P13386 whole entry, stated change not applied, form in doubt, chain 2 of 3, the tested form may be a part): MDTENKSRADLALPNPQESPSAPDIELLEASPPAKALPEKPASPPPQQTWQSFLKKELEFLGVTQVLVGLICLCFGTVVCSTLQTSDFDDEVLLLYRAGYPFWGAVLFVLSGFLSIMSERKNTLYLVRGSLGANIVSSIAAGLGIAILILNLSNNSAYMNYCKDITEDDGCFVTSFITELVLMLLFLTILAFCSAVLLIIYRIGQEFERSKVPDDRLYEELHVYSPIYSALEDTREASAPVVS
Chain of Human-Rat chimeric FcεRI α-chain protein (chimeric FcεRI on the cell membrane of HuRa clones) (human (extracellular domain) and rat (transmembrane and intracellular domains); rat) (P20411 19-86, stated change not applied, form in doubt, chain 3 of 3): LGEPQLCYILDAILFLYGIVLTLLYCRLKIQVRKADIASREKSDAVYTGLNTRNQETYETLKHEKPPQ

Substance: purified human IgE (ab65866, Abcam) (from UniProt P01854 1-428) (antibody)
- luciferase expression level (NF-AT reporter), IgE-sensitized (aIgE) against not sensitized (no IgE) cells, stimulated with anti-human IgE antibody; seven HuRa clones: 100 times
